From article PMC2330239 (Nucleic Acids Research, 2008)

T1: NCoA-1 PAS-B domain fragment 257–385 (human, UniProt Q15788 257-385)
T1 sequence: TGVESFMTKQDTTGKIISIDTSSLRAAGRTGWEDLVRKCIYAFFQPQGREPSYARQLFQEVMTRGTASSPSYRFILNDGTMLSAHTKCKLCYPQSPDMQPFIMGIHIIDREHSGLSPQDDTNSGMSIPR

T2: GST fusion protein of the NCoA-1 PAS-B domain, hNCoA-1 (260–370) (human, UniProt Q15788 260-370)
T2 sequence: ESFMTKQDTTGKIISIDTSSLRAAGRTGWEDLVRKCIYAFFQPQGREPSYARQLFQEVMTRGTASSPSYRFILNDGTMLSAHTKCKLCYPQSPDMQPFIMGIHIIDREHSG


Tests used:
[1] = target: T1, NCoA-1 PAS-B domain fragment 257–385; test: NMR titration
[2] = target: T2, GST fusion protein of the NCoA-1 PAS-B …; test: pull-down

| binding result [1] | binding result [2] | Binder |
| --- | --- | --- |
| binds | binds | EGRNDEKALLEQLVSFLSGKD [peptide representing LXXLL motif 5 of human NCoA-1] |
| binds | binds | LLPPTEQDLTKLLLEGQGESG [human STAT6 motif peptide, STAT6 (794–814)] |
| binds | binds | EDQCISSQLDELLCPPTTVEG [peptide representing LXXLL motif 4 of human NCoA-1] |
